Assay results from US10143730B2, “Peptides and combination of peptides for use in immunotherapy against various cancers” (immatics biotechnologies GmbH, priority 2015, dated 2018).

The substances below were run against T1, HLA-A*02 (Homo sapiens, UniProt P04439, D140Y/D185E/D98H/E176V/E277Q/G131W/G231S/I119V/I121R/I166T/I218V/L300P/N151K/N90K/P208A/P217A/Q86G/Q94H/R138H/R169H) (assay: MHC binding assay, UV-ligand exchange with beta2m ELISA (peptide exchange yield)). Details: binding to HLA-A*02.
T1 construct: made in house
Source text: Candidate peptides for T cell based therapies according to the present invention were further tested for their MHC binding capacity (affinity). The individual peptide-MHC complexes were produced by UV-ligand exchange, where a UV-sensitive peptide is cleaved upon UV-irradiation, and exchanged with the peptide of interest as analyzed. Only peptide candidates that can effectively bind and stabilize the peptide-receptive MHC molecules prevent dissociation of the MHC complexes. To determine the yield of the exchange reaction, an ELISA was performed based on the detection of the light chain (β2m) of stabilized MHC complexes. The assay was performed as generally described in Rodenko et al. (Rodenko et al., 2006).
96 well MAXISorp plates (NUNC) were coated over night with 2 ug/ml streptavidin in PBS at room temperature, washed 4× and blocked for 1h at 37° C. in 2% BSA containing blocking buffer. Refolded HLA-A*02:01/MLA-001 monomers served as standards, covering the range of 15-500 ng/ml. Peptide-MHC monomers of the UV-exchange reaction were diluted 100 fold in blocking buffer. Samples were incubated for 1h at 37° C., washed four times, incubated with 2 ug/ml HRP conjugated anti-32m for 1h at 37° C., washed again and detected with TMB solution that is stopped with […]. Absorption was measured at 450 nm. Candidate peptides that show a high exchange yield (preferably higher than 50%, most preferred higher than 75%) are generally preferred for a generation and production of antibodies or fragments thereof, and/or T cell receptors or fragments thereof, as they show sufficient avidity to the MHC molecules and prevent dissociation of the MHC complexes.

Substance	Peptide exchange (MHC class I binding score, peptide exchange yield)
3 (KLEENGDLYL; listed as Homo sapiens) [compound 3]	++++ (> = 75% = ++++)
9 (FLVDGSYSI; listed as Homo sapiens) [compound 9]	+++ (50%-75% = +++)
10 (GIAGSLKTV; listed as Homo sapiens) [compound 10]	+++ (50%-75% = +++)
13 (ALMAMLVYV; listed as Homo sapiens) [compound 13]	++ (20%-49% = ++)
15 (YLDLSHNQL; listed as Homo sapiens) [compound 15]	+++ (50%-75% = +++)
16 (YTLDIPVLFGV; listed as Homo sapiens) [compound 16]	++++ (> = 75% = ++++)
19 (SISDNVWEV; listed as Homo sapiens) [compound 19]	+++ (50%-75% = +++)
21 (AIQDEIRSV; listed as Homo sapiens) [compound 21]	+++ (50%-75% = +++)
22 (FVDPNTQEKV; listed as Homo sapiens) [compound 22]	++ (20%-49% = ++)
24 (TLDEKVAEL; listed as Homo sapiens) [compound 24]	+++ (50%-75% = +++)
25 (TMDSVLVTV; listed as Homo sapiens) [compound 25]	+++ (50%-75% = +++)
28 (SLPNGKPVSV; listed as Homo sapiens) [compound 28]	+++ (50%-75% = +++)
30 (AMIEEVFEA; listed as Homo sapiens) [compound 30]	++ (20%-49% = ++)
32 (VQLDSIEDLEV; listed as Homo sapiens) [compound 32]	+++ (50%-75% = +++)
33 (YIKTELISV; listed as Homo sapiens) [compound 33]	+++ (50%-75% = +++)
34 (FLLATEVVTV; listed as Homo sapiens) [compound 34]	++++ (> = 75% = ++++)
36 (SLADTNSLAVV; listed as Homo sapiens) [compound 36]	+++ (50%-75% = +++)
37 (ILAPFSVDL; listed as Homo sapiens) [compound 37]	+++ (50%-75% = +++)
38 (FLGPRIIGL; listed as Homo sapiens) [compound 38]	+++ (50%-75% = +++)
39 (HLLEGSVGV; listed as Homo sapiens) [compound 39]	+++ (50%-75% = +++)
40 (VLIDPQWVLTA; listed as Homo sapiens) [compound 40]	+++ (50%-75% = +++)

Substance	Peptide exchange (MHC class I binding score, peptide exchange yield)
41 (ALFENTPKA; listed as Homo sapiens) [compound 41]	++ (20%-49% = ++)
42 (LLDSVSRL; listed as Homo sapiens) [compound 42]	+ (<20% = +)
44 (SLFETAWEA; listed as Homo sapiens) [compound 44]	+++ (50%-75% = +++)
45 (SLTEVSLPL; listed as Homo sapiens) [compound 45]	+++ (50%-75% = +++)
46 (SQFPLPLAV; listed as Homo sapiens) [compound 46]	++ (20%-49% = ++)
47 (ALLERGELFV; listed as Homo sapiens) [compound 47]	+++ (50%-75% = +++)
48 (QVIEDSTGV; listed as Homo sapiens) [compound 48]	++ (20%-49% = ++)
49 (ALNIATHVL; listed as Homo sapiens) [compound 49]	+++ (50%-75% = +++)
50 (ILFHGVFYA; listed as Homo sapiens) [compound 50]	+++ (50%-75% = +++)
51 (LLFSRLCGA; listed as Homo sapiens) [compound 51]	++++ (> = 75% = ++++)
53 (KMVGLVVAI; listed as Homo sapiens) [compound 53]	+++ (50%-75% = +++)
54 (VLNPLITAV; listed as Homo sapiens) [compound 54]	+++ (50%-75% = +++)
55 (SLATKIVEA; listed as Homo sapiens) [compound 55]	+++ (50%-75% = +++)
56 (FLHDEKEGIYI; listed as Homo sapiens) [compound 56]	+++ (50%-75% = +++)
57 (TVFTDHMLTV; listed as Homo sapiens) [compound 57]	++ (20%-49% = ++)
58 (YLLPLLPAL; listed as Homo sapiens) [compound 58]	+++ (50%-75% = +++)
59 (KLLDPQEFTL; listed as Homo sapiens) [compound 59]	+++ (50%-75% = +++)
60 (ALFAPLVHL; listed as Homo sapiens) [compound 60]	+++ (50%-75% = +++)
61 (AIVKEIVNI; listed as Homo sapiens) [compound 61]	++ (20%-49% = ++)
62 (ALNPELVQA; listed as Homo sapiens) [compound 62]	++ (20%-49% = ++)
63 (SQIPAQPSV; listed as Homo sapiens) [compound 63]	++ (20%-49% = ++)

Substance	Peptide exchange (MHC class I binding score, peptide exchange yield)
64 (SLFPDSLIV; listed as Homo sapiens) [compound 64]	++ (20%-49% = ++)
65 (SVVPDVRSV; listed as Homo sapiens) [compound 65]	++ (20%-49% = ++)
66 (KLIFSVEAV; listed as Homo sapiens) [compound 66]	+++ (50%-75% = +++)
67 (TLLQRLTEV; listed as Homo sapiens) [compound 67]	+++ (50%-75% = +++)
68 (SLSNRLYYL; listed as Homo sapiens) [compound 68]	+++ (50%-75% = +++)
69 (FLAVGLVDV; listed as Homo sapiens) [compound 69]	+++ (50%-75% = +++)
70 (LLLGDSALYL; listed as Homo sapiens) [compound 70]	+++ (50%-75% = +++)
71 (VLHSKFWVV; listed as Homo sapiens) [compound 71]	+++ (50%-75% = +++)
72 (FLTAINYLL; listed as Homo sapiens) [compound 72]	+++ (50%-75% = +++)
73 (YTLREVDTV; listed as Homo sapiens) [compound 73]	++ (20%-49% = ++)
74 (TLFGYSVVL; listed as Homo sapiens) [compound 74]	+++ (50%-75% = +++)
75 (AVIKFLELL; listed as Homo sapiens) [compound 75]	+++ (50%-75% = +++)
76 (AVGPVHNSV; listed as Homo sapiens) [compound 76]	++ (20%-49% = ++)
77 (TLIDEQDIPLV; listed as Homo sapiens) [compound 77]	+++ (50%-75% = +++)
78 (TVVTRLDEI; listed as Homo sapiens) [compound 78]	++ (20%-49% = ++)
79 (VTFKEYVTV; listed as Homo sapiens) [compound 79]	++ (20%-49% = ++)
80 (KLYEADFVL; listed as Homo sapiens) [compound 80]	++ (20%-49% = ++)
81 (NALDKVLSV; listed as Homo sapiens) [compound 81]	+++ (50%-75% = +++)
82 (FIFDEAEKL; listed as Homo sapiens) [compound 82]	+ (<20% = +)
83 (GQASYFYVA; listed as Homo sapiens) [compound 83]	++ (20%-49% = ++)
